Assay results published in US10251926B2, “Extract from indigo naturalis and a process for preparing the same” (Galderma S.A., priority 2015, dated 2019).

What was measured:
[1] = test system: HaCaT; assay: HaCaT proliferation, MTT assay; assay type: cell-based; settings: Homo sapiens, 72 hours, unit nM
Protocol: HaCaT, a human epidermal keratinocyte line from The Second Military Medical University (SMMU), China, was cultured in DMEM containing 10% FBS.
HaCaT were seeded in 96-well plates at 4×10^4 cells/well overnight. Stausporine or test articles were then added into the culture and incubated at 37° C., 5% CO2 for 72 hours. After removal of the media, the cells in 96-well plates were exposed to 100 μL of MTT (0.5 mg/mL in DMEM containing 10% FBS per well and incubated for 3 hours at 37° C., 5% CO2. Subsequently, the supernatants were removed and 150 μL of DMSO were added to each well. The plate was incubated in the dark for 10 minutes and the absorbance at 492 nm was recorded immediately using Multiskan MK3microplate reader (Thermo Life Sciences, HK, China).
All IC50 values were determined by using Xlfit™ software (version 2.0) from ID
Background was defined in culture with cells treated with DMSO only and was subtracted for IC50 calculations.

[2] = test system: ears of mice; assay: Ear inflammation after intradermal injection of IL-22 (study 1, establishment of model); assay type: in vivo, BABL/c mice
Protocol: FIG. 3: Group and dosing for in vivo evaluation of extracts from Qingdai in IL-22 induced psoriasis model. Five studies were designed and outlined in study 1-5, respectively. In Study 1, 100 ng and 500 ng of IL-22 in 20 μL saline, i.d., were used for induction. In study 2-5, 500 ng of IL-22 in […], i.d., were used for induction.
FIG. 4: Figures illustrate ear inflammation after intradermal injection of IL-22. In the studies, ears of mice were injected intradermally and ear thickness was measured on days between injections.
BABL/c mice, male, body weight 19-22 g, purchased from Shanghai SLC AnimalCenter.
Intradermal injection of 20 μL PBS, either alone or containing 100 or 500 ng recombinant mouse IL-22 (eBiosience), was administered into the ears of anesthetized mice using a 30-gauge needle every other day for eleven days. Ear thicknesses were measured before injection on day 0 and thereafter on days without injections. Ear measurements were taken at the center of the ears using a digimatic micrometer caliper (Mitutoyo).
Results of ear thickness data were expressed as mean±S.E.M. AUC of ear swelling was calculated by the ear thickness data from day 0 to day 11, and analyzed by repeated-measured ANOVA methods with JMP® software. Cytokine protein and gene expression data were evaluated with a one-way ANOVA and followed by student's t-test for post-hoc analysis. […]

| Molecule | IC50 [1] | ear thickness (d 15) ([2]; study 1, IL-22 100 ng in 20 μL saline i.d., day 15) | ear thickness (d 15) ([2]; study 1, IL-22 500 ng in 20 μL saline i.d., second value of the cell, day 15 as in the lines above) |
| --- | --- | --- | --- |
| CN[C@@H]1C[C@H]2O[C@@](C)([C@@H]1OC)n1c3ccccc3c3c4c(c5c6ccccc6n2c5c31)C(=O)NC4 [Staurosporine] | 3.18 nM |  |  |
| IL-22: Recombinant mouse IL-22, intradermal inducer of ear inflammation (protein, UniProt Q9JJY9 34-179, looked up) Interleukin-22: LPVNTRCKLEVSNFQQPYIVNRTFMLAKEASLADNNTDVRLIGEKLFRGVSAKDQCYLMKQVLNFTLEDVLLPQSDRFQPYMQEVVPFLTKLSNQLSSCHISGDDQNIQKNVRRLKETVKKLGESGEIKAIGELDLLFMSLRNACV |  | 255.3 ± 15.1 μm | 296.3 ± 5.0 μm |
